Data taken from publication PMC10407929, “Determining DNA–Protein Binding Affinities and Specificities from Crude Lysates Using a Combined SILAC/TMT Labeling Strategy”.
Values joined by “and” are separate entries in the source; they are usually repeats but may differ in a detail not shown here. Equal values may be shown once.

Tests used:
Experiment in all cases: pulldown; 150 mM NaCl, 50 mM Tris pH 8.0, 0.25% NP-40, 1 mM DTT; 4 C, 2 h; 100 ug nuclear extract
Conditions in all cases: protein: extract; label: 5' biotin (strand 1)
[1] = molecular target: T1, VEZF1 (Homo sapiens, UniProt Q14119)
T1 sequence: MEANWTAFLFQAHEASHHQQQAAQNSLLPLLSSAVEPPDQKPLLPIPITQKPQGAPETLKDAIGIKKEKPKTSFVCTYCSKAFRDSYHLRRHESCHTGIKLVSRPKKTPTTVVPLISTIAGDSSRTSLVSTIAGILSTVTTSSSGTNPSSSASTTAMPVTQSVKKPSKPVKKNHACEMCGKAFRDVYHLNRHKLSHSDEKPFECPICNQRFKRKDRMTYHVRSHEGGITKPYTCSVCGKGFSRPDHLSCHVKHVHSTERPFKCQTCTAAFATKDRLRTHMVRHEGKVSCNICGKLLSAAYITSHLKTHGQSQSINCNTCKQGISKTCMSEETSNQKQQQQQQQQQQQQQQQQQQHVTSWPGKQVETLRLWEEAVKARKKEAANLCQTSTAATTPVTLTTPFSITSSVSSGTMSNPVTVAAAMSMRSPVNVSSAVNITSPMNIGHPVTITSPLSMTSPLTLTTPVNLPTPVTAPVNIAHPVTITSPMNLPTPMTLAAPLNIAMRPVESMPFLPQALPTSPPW

[2] = molecular target: KLF1 (Homo sapiens, UniProt Q13351)
[3] = molecular target: T2, MAZ (Homo sapiens, UniProt P56270)
T2 sequence: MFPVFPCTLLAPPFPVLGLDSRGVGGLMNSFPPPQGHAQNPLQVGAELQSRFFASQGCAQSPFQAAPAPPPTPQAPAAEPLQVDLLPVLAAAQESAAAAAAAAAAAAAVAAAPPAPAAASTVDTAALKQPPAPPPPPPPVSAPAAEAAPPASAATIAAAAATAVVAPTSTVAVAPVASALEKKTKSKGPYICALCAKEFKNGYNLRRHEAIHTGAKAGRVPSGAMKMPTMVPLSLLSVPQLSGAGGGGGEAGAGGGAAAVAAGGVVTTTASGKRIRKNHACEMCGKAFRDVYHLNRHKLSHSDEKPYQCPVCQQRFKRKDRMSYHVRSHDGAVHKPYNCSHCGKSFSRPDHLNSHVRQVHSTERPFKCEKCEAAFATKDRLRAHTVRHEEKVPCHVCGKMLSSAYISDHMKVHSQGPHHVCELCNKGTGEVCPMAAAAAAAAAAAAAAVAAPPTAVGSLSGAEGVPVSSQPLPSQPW

[4] = molecular target: T3, BANP (Homo sapiens, UniProt Q8N9N5)
T3 sequence: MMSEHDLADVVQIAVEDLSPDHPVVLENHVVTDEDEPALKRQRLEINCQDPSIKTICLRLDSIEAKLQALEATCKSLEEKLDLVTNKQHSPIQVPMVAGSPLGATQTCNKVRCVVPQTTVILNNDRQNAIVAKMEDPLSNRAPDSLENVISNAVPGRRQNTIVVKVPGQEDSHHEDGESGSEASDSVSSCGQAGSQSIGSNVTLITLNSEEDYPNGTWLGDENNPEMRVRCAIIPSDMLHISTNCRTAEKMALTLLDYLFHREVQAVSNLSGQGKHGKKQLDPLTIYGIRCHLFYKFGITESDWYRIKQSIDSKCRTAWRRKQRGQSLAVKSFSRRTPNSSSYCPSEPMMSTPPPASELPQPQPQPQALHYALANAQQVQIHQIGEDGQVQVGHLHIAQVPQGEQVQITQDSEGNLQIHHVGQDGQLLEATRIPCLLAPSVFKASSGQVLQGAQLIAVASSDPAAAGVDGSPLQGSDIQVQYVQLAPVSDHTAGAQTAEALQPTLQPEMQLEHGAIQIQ

[5] = molecular target: HOXB9 (Homo sapiens, UniProt P17482)
[6] = molecular target: T4, MAZ (Homo sapiens, UniProt P56270); remark: listed apart in the source
T4 sequence: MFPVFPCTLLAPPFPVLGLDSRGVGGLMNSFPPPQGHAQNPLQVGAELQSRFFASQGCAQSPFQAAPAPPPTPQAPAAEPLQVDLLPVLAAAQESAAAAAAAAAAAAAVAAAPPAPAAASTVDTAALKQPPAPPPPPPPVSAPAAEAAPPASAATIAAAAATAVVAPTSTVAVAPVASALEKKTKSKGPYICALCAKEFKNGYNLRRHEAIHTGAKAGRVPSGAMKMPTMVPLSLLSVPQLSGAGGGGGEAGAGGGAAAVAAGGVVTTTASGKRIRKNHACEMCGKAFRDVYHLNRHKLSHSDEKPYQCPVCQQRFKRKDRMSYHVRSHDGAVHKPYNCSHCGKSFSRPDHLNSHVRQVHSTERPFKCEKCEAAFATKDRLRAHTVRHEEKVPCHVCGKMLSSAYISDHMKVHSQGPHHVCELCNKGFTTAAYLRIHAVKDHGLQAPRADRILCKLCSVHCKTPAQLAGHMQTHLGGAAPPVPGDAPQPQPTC

[7] = molecular target: KLF12 (Homo sapiens, UniProt Q9Y4X4)
[8] = molecular target: T5, BEND3 (Homo sapiens, UniProt Q5T5X7)
T5 sequence: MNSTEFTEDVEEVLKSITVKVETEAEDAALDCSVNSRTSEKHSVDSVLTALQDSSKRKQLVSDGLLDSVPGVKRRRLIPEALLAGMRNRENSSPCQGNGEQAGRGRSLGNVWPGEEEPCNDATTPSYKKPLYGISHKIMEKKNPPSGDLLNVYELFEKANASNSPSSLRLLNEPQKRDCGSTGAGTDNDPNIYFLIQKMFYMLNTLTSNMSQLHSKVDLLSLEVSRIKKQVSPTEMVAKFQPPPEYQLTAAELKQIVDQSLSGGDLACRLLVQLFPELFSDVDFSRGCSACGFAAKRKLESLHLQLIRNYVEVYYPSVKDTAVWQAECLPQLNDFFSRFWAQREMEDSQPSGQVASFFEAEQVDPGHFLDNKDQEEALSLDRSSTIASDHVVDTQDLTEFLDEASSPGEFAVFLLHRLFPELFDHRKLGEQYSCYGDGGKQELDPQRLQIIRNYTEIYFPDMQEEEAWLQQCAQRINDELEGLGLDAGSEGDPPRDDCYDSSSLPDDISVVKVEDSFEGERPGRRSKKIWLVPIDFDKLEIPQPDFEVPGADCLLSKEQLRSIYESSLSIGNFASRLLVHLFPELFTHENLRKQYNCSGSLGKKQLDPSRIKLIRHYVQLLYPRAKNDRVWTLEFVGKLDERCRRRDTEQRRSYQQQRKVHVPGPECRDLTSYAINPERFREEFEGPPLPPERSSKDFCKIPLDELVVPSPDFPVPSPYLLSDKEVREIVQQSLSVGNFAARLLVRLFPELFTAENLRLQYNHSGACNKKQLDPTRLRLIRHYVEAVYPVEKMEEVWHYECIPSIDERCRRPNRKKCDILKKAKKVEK

[9] = molecular target: KLF5 (Homo sapiens, UniProt Q13887)
[10] = molecular target: SP1 (Homo sapiens, UniProt P08047)
[11] = molecular target: SP3 (Homo sapiens, UniProt Q02447)
[12] = molecular target: TFAP2A (Homo sapiens, UniProt P05549)
[13] = molecular target: T6, ZNF148 (Homo sapiens, UniProt Q9UQR1)
T6 sequence: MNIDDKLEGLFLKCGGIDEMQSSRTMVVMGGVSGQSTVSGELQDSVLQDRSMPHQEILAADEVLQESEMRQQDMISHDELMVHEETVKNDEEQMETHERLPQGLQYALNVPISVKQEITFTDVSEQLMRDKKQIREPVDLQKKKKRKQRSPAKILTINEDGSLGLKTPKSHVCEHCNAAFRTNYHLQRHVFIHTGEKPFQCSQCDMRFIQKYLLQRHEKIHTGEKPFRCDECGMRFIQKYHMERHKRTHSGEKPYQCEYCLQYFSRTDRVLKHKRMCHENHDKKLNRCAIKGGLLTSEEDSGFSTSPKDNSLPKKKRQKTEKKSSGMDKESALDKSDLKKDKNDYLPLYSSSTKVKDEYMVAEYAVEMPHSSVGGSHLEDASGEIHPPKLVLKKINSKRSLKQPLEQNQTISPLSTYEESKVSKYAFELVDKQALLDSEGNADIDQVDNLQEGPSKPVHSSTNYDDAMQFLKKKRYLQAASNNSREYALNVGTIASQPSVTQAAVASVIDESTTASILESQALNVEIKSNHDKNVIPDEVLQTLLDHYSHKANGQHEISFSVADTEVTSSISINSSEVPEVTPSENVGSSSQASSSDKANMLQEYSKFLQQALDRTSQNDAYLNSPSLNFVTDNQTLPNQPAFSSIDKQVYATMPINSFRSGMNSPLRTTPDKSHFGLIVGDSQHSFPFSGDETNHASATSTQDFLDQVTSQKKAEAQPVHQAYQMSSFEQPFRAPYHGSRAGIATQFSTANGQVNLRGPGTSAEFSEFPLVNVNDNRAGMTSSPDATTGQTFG

Sequence of SP1 (P08047 whole entry): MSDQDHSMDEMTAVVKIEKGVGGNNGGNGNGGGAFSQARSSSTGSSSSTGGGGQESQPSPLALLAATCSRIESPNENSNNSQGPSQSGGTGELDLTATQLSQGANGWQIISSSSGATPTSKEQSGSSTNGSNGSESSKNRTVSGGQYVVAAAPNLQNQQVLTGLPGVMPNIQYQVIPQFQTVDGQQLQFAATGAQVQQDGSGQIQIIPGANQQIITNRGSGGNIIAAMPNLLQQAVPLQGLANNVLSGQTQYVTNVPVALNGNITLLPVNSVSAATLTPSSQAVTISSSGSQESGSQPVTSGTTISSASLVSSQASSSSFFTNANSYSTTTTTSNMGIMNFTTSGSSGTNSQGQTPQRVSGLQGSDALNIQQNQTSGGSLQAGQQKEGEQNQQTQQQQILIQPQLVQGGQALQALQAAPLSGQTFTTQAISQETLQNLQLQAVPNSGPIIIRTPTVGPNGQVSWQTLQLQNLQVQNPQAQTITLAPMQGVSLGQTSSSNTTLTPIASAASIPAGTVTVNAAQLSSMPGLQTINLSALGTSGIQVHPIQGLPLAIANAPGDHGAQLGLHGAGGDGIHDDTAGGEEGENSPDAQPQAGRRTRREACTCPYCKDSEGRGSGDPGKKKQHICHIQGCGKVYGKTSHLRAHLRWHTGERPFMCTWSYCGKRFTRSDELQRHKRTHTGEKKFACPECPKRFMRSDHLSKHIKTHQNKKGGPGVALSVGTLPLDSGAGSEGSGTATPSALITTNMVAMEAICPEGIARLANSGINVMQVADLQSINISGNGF
Sequence of KLF5 (Q13887 whole entry): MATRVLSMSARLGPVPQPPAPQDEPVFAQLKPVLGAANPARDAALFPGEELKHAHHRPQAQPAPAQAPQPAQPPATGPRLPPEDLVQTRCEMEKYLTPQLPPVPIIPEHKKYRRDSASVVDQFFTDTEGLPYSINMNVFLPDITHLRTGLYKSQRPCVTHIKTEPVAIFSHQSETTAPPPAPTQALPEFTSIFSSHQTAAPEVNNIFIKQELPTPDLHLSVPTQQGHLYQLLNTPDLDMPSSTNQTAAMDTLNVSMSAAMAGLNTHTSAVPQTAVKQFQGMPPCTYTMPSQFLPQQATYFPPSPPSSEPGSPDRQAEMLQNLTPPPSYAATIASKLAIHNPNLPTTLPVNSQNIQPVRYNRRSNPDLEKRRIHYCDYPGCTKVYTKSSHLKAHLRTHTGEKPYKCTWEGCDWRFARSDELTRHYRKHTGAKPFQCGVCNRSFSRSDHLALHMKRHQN
Sequence of KLF1 (Q13351 whole entry): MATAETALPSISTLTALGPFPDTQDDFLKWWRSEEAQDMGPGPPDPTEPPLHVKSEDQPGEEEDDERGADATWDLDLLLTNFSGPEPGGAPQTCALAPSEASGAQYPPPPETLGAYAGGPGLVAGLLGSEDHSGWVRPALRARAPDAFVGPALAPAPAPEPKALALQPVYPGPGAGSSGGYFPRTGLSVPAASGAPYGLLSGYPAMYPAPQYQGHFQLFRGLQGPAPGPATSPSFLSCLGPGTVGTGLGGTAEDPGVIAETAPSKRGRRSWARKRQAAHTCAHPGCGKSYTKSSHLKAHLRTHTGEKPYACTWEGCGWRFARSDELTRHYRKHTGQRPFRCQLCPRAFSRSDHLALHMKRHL
Sequence of TFAP2A (P05549 whole entry): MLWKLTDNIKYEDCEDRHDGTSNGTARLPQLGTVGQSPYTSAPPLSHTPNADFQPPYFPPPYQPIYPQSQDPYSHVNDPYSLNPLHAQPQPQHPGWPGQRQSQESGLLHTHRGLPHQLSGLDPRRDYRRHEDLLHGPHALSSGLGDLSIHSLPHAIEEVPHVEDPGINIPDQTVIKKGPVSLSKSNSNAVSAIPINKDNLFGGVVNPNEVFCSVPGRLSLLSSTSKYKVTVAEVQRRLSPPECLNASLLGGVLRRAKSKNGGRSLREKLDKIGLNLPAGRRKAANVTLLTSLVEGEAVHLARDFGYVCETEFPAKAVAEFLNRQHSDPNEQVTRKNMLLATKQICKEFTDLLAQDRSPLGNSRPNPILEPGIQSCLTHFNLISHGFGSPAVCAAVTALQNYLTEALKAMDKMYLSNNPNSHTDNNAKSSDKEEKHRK
Sequence of KLF12 (Q9Y4X4 whole entry): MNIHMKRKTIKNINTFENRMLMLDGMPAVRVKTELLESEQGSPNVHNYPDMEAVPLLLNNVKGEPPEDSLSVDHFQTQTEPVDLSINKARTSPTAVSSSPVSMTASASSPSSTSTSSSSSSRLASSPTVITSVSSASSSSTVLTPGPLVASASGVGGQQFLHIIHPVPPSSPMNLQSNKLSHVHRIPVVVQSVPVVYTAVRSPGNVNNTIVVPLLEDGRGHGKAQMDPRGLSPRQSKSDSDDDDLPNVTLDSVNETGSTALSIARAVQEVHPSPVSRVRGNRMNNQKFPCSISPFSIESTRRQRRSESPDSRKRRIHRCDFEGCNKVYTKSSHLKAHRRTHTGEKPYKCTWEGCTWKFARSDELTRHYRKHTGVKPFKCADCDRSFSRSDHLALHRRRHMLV
Sequence of SP3 (Q02447 whole entry): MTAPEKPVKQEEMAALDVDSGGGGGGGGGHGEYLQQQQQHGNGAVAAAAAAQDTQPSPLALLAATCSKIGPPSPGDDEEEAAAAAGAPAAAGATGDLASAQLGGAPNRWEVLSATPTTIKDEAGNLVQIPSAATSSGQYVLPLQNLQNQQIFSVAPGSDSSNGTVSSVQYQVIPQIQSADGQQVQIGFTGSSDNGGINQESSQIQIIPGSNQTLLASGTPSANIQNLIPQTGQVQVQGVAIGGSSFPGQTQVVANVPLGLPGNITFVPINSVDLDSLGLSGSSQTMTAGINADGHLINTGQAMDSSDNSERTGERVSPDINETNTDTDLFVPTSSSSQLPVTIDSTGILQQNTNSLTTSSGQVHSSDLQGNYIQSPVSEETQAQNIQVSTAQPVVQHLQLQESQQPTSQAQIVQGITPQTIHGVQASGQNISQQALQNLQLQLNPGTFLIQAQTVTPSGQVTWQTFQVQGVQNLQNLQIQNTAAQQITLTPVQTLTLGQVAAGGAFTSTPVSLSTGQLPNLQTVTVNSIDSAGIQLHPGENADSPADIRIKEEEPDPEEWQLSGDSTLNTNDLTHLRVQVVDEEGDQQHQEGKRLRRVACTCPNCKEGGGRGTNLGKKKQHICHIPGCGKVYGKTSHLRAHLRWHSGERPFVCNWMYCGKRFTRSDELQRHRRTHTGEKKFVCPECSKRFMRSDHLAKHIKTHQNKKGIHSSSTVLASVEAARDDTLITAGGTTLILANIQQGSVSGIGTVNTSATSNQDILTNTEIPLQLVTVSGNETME
Sequence of HOXB9 (P17482 whole entry): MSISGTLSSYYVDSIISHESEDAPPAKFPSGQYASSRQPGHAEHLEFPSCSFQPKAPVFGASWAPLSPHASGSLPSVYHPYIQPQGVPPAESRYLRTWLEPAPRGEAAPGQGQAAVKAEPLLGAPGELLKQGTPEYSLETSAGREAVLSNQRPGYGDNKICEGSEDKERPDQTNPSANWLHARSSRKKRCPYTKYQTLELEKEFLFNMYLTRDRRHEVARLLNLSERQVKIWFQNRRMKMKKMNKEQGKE

B1: SP/KLF negative control bait (dsDNA)
DNA 1: GAGAGAAAATAAAACTGGCT
DNA 2: AGCCAGTTTTATTTTCTCTC
apparent K (half saturation) [1]: > 1180 nM

B2: CGCG bait (dsDNA)
DNA 1: GCCGCCGCCCTTCTCGCGAGACTGCCGGGCC
DNA 2: GGCCCGGCAGTCTCGCGAGAAGGGCGGCGGC
apparent K (half saturation) [2]: 83 nM
apparent K (half saturation) [3]: 203 nM
apparent K (half saturation) [4]: 6.9 nM and 11.3 nM
apparent K (half saturation) [5]: 323 nM
apparent K (half saturation) [6]: 153 nM
apparent K (half saturation) [1]: 333 nM

B3: BEND3 bait (dsDNA)
DNA 1: GCCGCCGCCCTCCCACGCGCTGCCGGGCC
DNA 2: GGCCCGGCAGCGCGTGGGAGGGCGGCGGC
apparent K (half saturation) [7]: 346 nM
apparent K (half saturation) [3]: 56.4 nM
apparent K (half saturation) [8]: 166 nM
apparent K (half saturation) [9]: 227 nM
apparent K (half saturation) [1]: 110 nM
apparent K (half saturation) [10]: 289 nM

B4: SP/KLF bait (dsDNA)
DNA 1: GAGAGCCCCGCCCCCTGGCT
DNA 2: AGCCAGGGGGCGGGGCTCTC
apparent K (half saturation) [11]: 6.26 nM
apparent K (half saturation) [12]: 162 nM
apparent K (half saturation) [1]: 90.4 nM
apparent K (half saturation) [13]: 54.2 nM
apparent K (half saturation) [10]: 13.8 nM
